Experimental data published in publication PMC4931344, “The FNIP co-chaperones decelerate the Hsp90 chaperone cycle and enhance drug binding” (Nature Communications, 2016).
One block for each molecule: values may come before it.

How the values were obtained:
[1] = target: FNIP1-D–His6 labelled with Texas Red Maleimide (UniProt Q8TF40); test: fluorescence polarisation; fluorescence anisotropy; 1 μM Texas Red-labelled FNIP1-D, Hsp90α titrated; 50 mM Tris pH 7.2, 150 mM NaCl, 1 mM TCEP, 4 mM MgCl2, with or without 1 mM ATP, ADP or AMPPNP; single-site binding equation
[2] = target: Hsp90α–FLAG full-length (wild type) (human) (UniProt P07900)
[3] = target: T1, FLAG–FNIP1 (bacterially expressed and purified) (UniProt Q8TF40 1-1166); test: pull-down; His6-tagged protein bound to Ni-NTA agarose, incubated with 10 ng pure FLAG–FNIP1; immunoblot; details: both partners purified
T1 construct: FNIP1; bacterial expression from pRSET-A; also called recombinant FNIP1; source: bacterially expressed and purified (a small amount)
T1 sequence (looked up): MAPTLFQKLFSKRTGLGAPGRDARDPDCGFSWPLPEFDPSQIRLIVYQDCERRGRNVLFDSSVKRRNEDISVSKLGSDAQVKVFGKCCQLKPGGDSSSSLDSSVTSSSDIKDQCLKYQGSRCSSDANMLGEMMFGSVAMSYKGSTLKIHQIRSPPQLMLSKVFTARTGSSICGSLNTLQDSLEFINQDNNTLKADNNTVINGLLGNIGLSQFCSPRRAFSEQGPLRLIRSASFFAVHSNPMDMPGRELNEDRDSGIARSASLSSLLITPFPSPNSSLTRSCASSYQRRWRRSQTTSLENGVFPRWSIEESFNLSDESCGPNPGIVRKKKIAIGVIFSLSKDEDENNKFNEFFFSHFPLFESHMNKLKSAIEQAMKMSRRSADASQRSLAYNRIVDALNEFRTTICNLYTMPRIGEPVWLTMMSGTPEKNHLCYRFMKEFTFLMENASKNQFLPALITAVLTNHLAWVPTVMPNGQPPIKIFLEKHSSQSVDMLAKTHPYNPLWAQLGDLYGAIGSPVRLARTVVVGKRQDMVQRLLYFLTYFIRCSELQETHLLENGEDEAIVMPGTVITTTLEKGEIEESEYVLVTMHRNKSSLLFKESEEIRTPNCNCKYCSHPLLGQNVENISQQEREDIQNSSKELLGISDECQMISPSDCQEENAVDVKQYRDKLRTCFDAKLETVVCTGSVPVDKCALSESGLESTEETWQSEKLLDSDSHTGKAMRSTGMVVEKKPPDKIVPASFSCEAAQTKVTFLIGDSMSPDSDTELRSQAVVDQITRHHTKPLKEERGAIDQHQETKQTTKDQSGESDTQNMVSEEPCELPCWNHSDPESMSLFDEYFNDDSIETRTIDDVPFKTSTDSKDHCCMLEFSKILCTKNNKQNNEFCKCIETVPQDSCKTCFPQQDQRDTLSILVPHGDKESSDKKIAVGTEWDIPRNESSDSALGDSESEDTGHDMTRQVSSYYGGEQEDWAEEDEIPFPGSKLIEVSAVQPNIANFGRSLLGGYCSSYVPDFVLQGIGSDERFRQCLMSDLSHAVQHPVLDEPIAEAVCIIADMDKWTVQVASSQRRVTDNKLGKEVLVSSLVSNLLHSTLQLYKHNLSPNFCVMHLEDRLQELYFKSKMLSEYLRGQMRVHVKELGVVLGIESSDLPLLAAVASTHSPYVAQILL

- Kd [1]: 1300 nM
Molecule: Hsp90α–His6 (from UniProt P07900 1-732) (natural protein)

- inhibition of the in vitro ATPase activity of isolated Hsp90α (PiPer Phosphate Assay; Hsp90α 291.5 nM) by 200 nM FNIP1 (189.8 nM in the results) [2]: 50 fold
B1: HA–FNIP1 (natural protein)
chain: T1 sequence (looked up)

- inhibition of the in vitro ATPase activity of isolated Hsp90α (PiPer Phosphate Assay; Hsp90α 291.5 nM) by 1.6 μM FNIP2 [2]: 8 fold
B2: HA–FNIP2 (natural protein)
chain: MAPTLLQKLFNKRGSSGSSAAASAQGRAPKEGPAFSWSCSEFDLNEIRLIVYQDCDRRGRQVLFDSKAVQKIEEVTAQKTEDVPIKISAKCCQGSSSVSSSSSSSISSHSSSGGSSHHAKEQLPKYQYTRPASDVNMLGEMMFGSVAMSYKGSTLKIHYIRSPPQLMISKVFSARMGSFCGSTNNLQDSFEYINQDPNLGKLNTNQNSLGPCRTGSNLAHSTPVDMPSRGQNEDRDSGIARSASLSSLLITPFPSPSSSTSSSSSYQRRWLRSQTTSLENGIIPRRSTDETFSLAEETCSSNPAMVRRKKIAISIIFSLCEKEEAQRNFQDFFFSHFPLFESHMNRLKSAIEKAMISCRKIAESSLRVQFYVSRLMEALGEFRGTIWNLYSVPRIAEPVWLTMMSGTLEKNQLCQRFLKEFTLLIEQINKNQFFAALLTAVLTYHLAWVPTVMPVDHPPIKAFSEKRTSQSVNMLAKTHPYNPLWAQLGDLYGAIGSPVRLTRTVVVGKQKDLVQRILYVLTYFLRCSELQENQLTWSGNHGEGDQVLNGSKIITALEKGEVEESEYVVITVRNEPALVPPILPPTAAERHNPWPTGFPECPEGTDSRDLGLKPDKEANRRPEQGSEACSAGCLGPASDASWKPQNAFCGDEKNKEAPQDGSSRLPSCEVLGAGMKMDQQAVCELLKVEMPTRLPDRSVAWPCPDRHLREKPSLEKVTFQIGSFASPESDFESRMKKMEERVKACGPSLEASEAADVAQDPQVSRSPFKPGFQENVCCPQNRLSEGDEGESDKGFAEDRGSRNDMAADIAGQLSHAADLGTASHGAGGTGGRRLEATRGLYVKAAEGPVLEPVAPRCVQRGPGLVAGANIPCGDDNKKANFRTEGDIPRNESSDSALGDSDDEACASAMLDLGHGGDRTGGSLEVELPLPRSQSISTQNVRNFGRSLLAGYCPTYMPDLVLHGTGSDEKLKQCLVADLVHTVHHPVLDEPIAEAVCIIADTDKWSVQVATSQRKVTDNMKLGQDVLVSSQVSSLLQSILQLYKLHLPADFCIMHLEDRLQEMYLKSKMLSEYLRGHTRVHVKELGVVLGIESNDLPLLTAIASTHSPYVAQILL

- binding result [3]: binds
B3: FLCN–His6 (natural protein, UniProt Q8NFG4 1-579, looked up)
chain: MNAIVALCHFCELHGPRTLFCTEVLHAPLPQGDGNEDSPGQGEQAEEEEGGIQMNSRMRAHSPAEGASVESSSPGPKKSDMCEGCRSLAAGHPGYISHDKETSIKYVSHQHPSHPQLFSIVRQACVRSLSCEVCPGREGPIFFGDEQHGFVFSHTFFIKDSLARGFQRWYSIITIMMDRIYLINSWPFLLGKVRGIIDELQGKALKVFEAEQFGCPQRAQRMNTAFTPFLHQRNGNAARSLTSLTSDDNLWACLHTSFAWLLKACGSRLTEKLLEGAPTEDTLVQMEKLADLEEESESWDNSEAEEEEKAPVLPESTEGRELTQGPAESSSLSGCGSWQPRKLPVFKSLRHMRQVLGAPSFRMLAWHVLMGNQVIWKSRDVDLVQSAFEVLRTMLPVGCVRIIPYSSQYEEAYRCNFLGLSPHVQIPPHVLSSEFAVIVEVHAAARSTLHPVGCEDDQSLSKYEFVVTSGSPVAADRVGPTILNKIEAALTNQNLSVDVVDQCLVCLKEEWMNKVKVLFKFTKVDSRPKEDTQKLLSILGASEEDNVKLLKFWMTGLSKTYKSHLMSTVRSPTASESRN
notes: folliculin (FLCN), bacterially expressed; The name puts His6 behind the protein; source: bacterially expressed and purified; not shown: His6, N-terminal, kept
